Results reported in publication PMC8686788 (Science (New York, N.Y.), 2021).
Positions count from the first letter of the chain named. Numbers in names are those of the source. Read-outs that look alike come from different tables or passages of the source. One block for each binder: values may come before it.

Columns and labels:
Assay in all cases: fluorescence polarisation
KaiC [1] = biological target: T1, KaiC (Synechococcus elongatus, UniProt Q79PF4 1-519)
T1 sequence (looked up): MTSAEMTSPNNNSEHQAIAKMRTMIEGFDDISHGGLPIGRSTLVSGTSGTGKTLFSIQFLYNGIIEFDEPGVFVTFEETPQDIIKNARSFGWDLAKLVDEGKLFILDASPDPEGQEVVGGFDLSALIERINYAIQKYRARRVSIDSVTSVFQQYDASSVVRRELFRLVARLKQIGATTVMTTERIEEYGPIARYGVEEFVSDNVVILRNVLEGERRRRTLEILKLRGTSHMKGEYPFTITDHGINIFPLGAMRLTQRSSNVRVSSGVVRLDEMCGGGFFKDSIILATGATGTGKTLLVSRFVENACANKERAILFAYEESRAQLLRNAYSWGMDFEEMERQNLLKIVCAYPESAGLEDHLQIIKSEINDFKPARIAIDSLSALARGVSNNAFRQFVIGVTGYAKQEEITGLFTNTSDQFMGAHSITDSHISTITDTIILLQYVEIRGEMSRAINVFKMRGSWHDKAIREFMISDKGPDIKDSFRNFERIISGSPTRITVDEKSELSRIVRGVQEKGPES

KaiC [2] = biological target: T1, KaiC; remark: listed apart in the source
KaiC-EA = biological target: T2, KaiC-EA (Synechococcus elongatus, UniProt Q79PF4 1-519, S431E (KaiC-EA) | T432A (KaiC-EA))
T2 sequence (looked up): T1 sequence (looked up) with S431E, T432A

[3] = biological target: T3, circadian input kinase A, CikA (Synechococcus elongatus, UniProt Q9KHI5 1-754, fluorescent probe attached by sortase A-mediated ligation)
T3 sequence (looked up): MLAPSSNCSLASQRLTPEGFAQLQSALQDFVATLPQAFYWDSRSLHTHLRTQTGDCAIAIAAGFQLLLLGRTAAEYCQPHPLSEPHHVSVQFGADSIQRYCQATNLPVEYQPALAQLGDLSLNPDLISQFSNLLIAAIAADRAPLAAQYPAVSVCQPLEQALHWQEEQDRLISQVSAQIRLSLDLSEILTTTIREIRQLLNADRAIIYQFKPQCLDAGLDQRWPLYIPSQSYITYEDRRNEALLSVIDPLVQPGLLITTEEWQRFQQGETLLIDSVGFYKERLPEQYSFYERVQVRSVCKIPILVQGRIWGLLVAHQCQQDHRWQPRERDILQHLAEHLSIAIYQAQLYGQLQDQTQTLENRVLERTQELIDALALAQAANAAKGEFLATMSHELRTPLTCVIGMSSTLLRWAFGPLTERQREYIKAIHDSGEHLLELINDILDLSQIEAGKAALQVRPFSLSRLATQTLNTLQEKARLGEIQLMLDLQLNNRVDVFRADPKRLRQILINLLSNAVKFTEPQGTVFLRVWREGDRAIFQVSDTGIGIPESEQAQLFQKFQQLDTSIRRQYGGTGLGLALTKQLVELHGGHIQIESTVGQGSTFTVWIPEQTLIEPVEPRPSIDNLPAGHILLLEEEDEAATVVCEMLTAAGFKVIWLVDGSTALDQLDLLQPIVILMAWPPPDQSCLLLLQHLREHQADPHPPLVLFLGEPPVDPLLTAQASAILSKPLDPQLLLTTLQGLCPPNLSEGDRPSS

binding result (KaiC [1]): binds
B1: KaiA (natural protein, Synechococcus elongatus, UniProt Q79PF6 1-284, looked up)
chain: MLSQIAICIWVESTAILQDCQRALSADRYQLQVCESGEMLLEYAQTHRDQIDCLILVAANPSFRAVVQQLCFEGVVVPAIVVGDRDSEDPDEPAKEQLYHSAELHLGIHQLEQLPYQVDAALAEFLRLAPVETMADHIMLMGANHDPELSSQQRDLAQRLQERLGYLGVYYKRDPDRFLRNLPAYESQKLHQAMQTSYREIVLSYFSPNSNLNQSIDNFVNMAFFADVPVTKVVEIHMELMDEFAKKLRVEGRSEDILLDYRLTLIDVIAHLCEMYRRSIPRET
modifications: fluorescent probe attached by sortase A-mediated ligation

binding result (KaiC-EA): binds
binding result (KaiC [1]): binds
B3: KaiB (natural protein, Synechococcus elongatus, UniProt Q79PF5 1-102, looked up)
chain: MSPRKTYILKLYVAGNTPNSVRALKTLKNILEVEFQGVYALKVIDVLKNPQLAEEDKILATPTLAKVLPLPVRRIIGDLSDREKVLIGLDLLYGELQDSDDF
modifications: fluorescent probe attached by sortase A-mediated ligation

Second part, the binder before the results:

B2: SasA-H28A-Q94A (enzyme, Synechococcus elongatus, UniProt Q06904 1-387, looked up)
chain: MGESLSPQALAQPLLLQLFVDTRPLSQAIVQRVKNILAAVEATVPISLQVINVADQPQLVEYYRLVVTPALVKIGPGSRQVLSGIDLTDQLANALPQWLVQQEAFFADREPPEVNIPFTELGQPETPALQQADAFFQLQQQYADLSERTKFLEQVIALVAHDLRNPLTAALLAVDTIQIRSQSFSVATAKEMQGLCSLFDQARSQLREIERMIAEILEATRHSGESLRINPREVVFEPLLQQVLEQLHERWRSKQQQLITDVPGDLPTLYADPDRLRQVLVNLLDNAIKYTPPGGTITIAALHRTSQKVQISISDTGSGIPRDQLSVIFKNLVRLSRDSSQEGYGIGLSVCQRIVQAHFGRIWVASELGQGSTFHFTMPVYRYTMPC
binding result (KaiC [2]): binds

B4: KaiB-KaiC complex (complex, Synechococcus elongatus)
chain 1: B3 chain
chain 2: T1 sequence (looked up)
binding result [3]: binds
